Reference: the supplement of paper PMC9170038

Legend:
MS2 coat protein [1] = assay: apparent KD of MS2 coat protein, switch OFF state (with FMN for OFF switches, without FMN for ON switches); designed switch direction (-1 OFF switch, 1 ON switch): -1; higher = weaker reporter binding; settings: FMN input: 0 or 200 uM; Eterna round: R93 (includes R88 designs)
Procedure, shortened: (§1)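 Designed RNA switches were transcribed on-chip from Illumina sequencing clusters. SNAP-549-labelled MS2 coat protein was titrated onto them in twofold steps from 0.7 or 1.5 nM to 3 µM in 100 mM Tris-HCl pH 7.5, 80 mM KCl, 4 mM MgCl2, either without or with constant ligand. Apparent KD reflects the per-design median of normalised cluster binding-curve fits.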

MS2 coat protein [2] = assay: apparent KD of MS2 coat protein, switch ON state; designed switch direction (-1 OFF switch, 1 ON switch): -1; higher = weaker reporter binding; settings: FMN input: 0 or 200 uM; Eterna round: R93 (includes R88 designs)
Procedure, shortened: as §1

Row | Sequence | apparent KD of MS2 coat protein (MS2 coat protein [1]) [nM] | apparent KD of MS2 coat protein (MS2 coat protein [2]) [nM]
1 | AAAAAACAUGAGGAUCACCCAUGUGAGGAUAUUGGUAUUAAAGACACCCACUUAAUGGCGAGAAGGCGCAAAAA [Brourd 613 Mod 19 - Jieux - Exclusion 1] | 27.5 | 25.5
2 | AAGGUACGAGGAUAUACAUAGAUACAGACACAUGUUCAUGUACAUGAGGAUCACCCAUGUAGAAGGCGUAUAUA [AJ 17] | 147 | 56.7
3 | GAGGUAUGAGGAUAUACAUAGAUACAGACACAUGUUCAAGUACAUGAGGAUCACCCAUGUAGAAGGCAUAUAUC [Mat - Same state - Mayanna Mod - D105] | 37.2 | 22
4 | AGAAUACAUGAGGAUCACCCAUGUGAGGAUAUGUAGAUAAAAAUAAAAUAAAAUAAAUACAGAAGGCACAAAAG [EX 1 May 19] | 59.7 | 61.3
5 | GCUGUGCAAGGAUAUACAUGAGGAUCACCCAUGUGAGAGAAAAAAGUGAGAAAGAAAAGUAGAAGGUGCGUAGG [salish99-ex3-99] | 43.3 | 36.5
6 | CUCUUGUCAGGAUAUGCAAGAAAAGAAAAGAAAGAAAAGAAGCAGAAGGGACAUGAGGAUCACCCAUGUAAGAA [EteRNA is fun!] | 77.7 | 76.7
7 | AUCUUGUCAGGAUAUGACUACAUAAAAAAAAAAAAAUGUAGUCAGAAGGGACAUGAGGAUCACCCAUGUACUAA [hsl_exclusion4] | 62.4 | 41.9
8 | AGUUAGUCAGGAUAUGCGUGAAGAAUAAAAGAAAUAACAACGCAGAAGGGACAUGAGGAUCACCCAUGUAAACA [May 55] | 37.3 | 34.2
9 | AGAAAGUGAGGAUAUCGAAGACUGUCGAAAAGACAGUCGAACGAGAAGGCACAUGAGGAUCACCCAUGUGAGGG [Mat - Exaclusion 4 - Eli mod - D67] | 58.2 | 76.3
10 | AAAAAGUGAGGAUAUAGCAAAGGUCACGAAAGUGACAAAGGCUAGAAGGCACAUGAGGAUCACCCAUGUAAAAA [Fiskers Exclusion 4 D2 63% 1] | 34.9 | 41.6
11 | AAAAAACAUGAGGAUCACCCAUGUCAGGAUAUCCGAAAAAAAAAAAAAAAAAGGCCUUGGAGAAGGGACAUUCC [Chica Displaced 7- Jieux - Exclusion 1] | 57.5 | 53.7
12 | AAAAUGUCAGGAUAUGCGAAGGCGUCUGACAGACGAGGAUUGCAGAAGGGACAUGAGGAUCACCCAUGUAAAAA [A Change in Energy (MS2 Riboswitch - Exclusion 4)] | 131 | 84.3
13 | AUCUCGUCAGGAUAUGACUACAUAAAAAAAAAAAAAUGUAGUCAGAAGGGACAUGAGGAUCACCCAUGUACCAA [HSL_Exclusion 4 64% 3] | 22.8 | 21.9
14 | AAACCACAUGAGGAUCACCCAUGUCAGGAUAUGAACGAAAAUAAAUAAAAAUAAAAGUUCAGAAGGGACAAAAA [66%, Wbt, 13] | 77.2 | 42.3
15 | AGGAAACAUGAGGAUCACCCAUGUUAGGAUAUGAACGAAAUAAAAUAAAAAUAAAAGUUCAGAAGGGACAAAAA [Mat - Exclusion 1 - Eli mod - D20] | 49.6 | 24.9
16 | CUCAUGUCAGGAUAUCAGUAGUAAAAAAAUAAAAUUACUACUGAGAAGGGACAUGAGGAUCACCCAUGUCCAAA [EX4 367: Super Stable 67] | 36.1 | 93.1
17 | AAAAACAGAGGAUAUACAAAAUUAUGACGAAAGUCAUAAAAACAUGAGGAUCACCCAUGUAGAAGGCUGGAAAA [Mat - Mod of Meechl] | 22.7 | 28.5
18 | AGUUGGCGAGGAUAUACAUGAGGAUCACCCAUGUGAAAAAAGGGCUCGAAAGAGAAAAGUAGAAGGCGCUGACA [73%, Moding Norbert Elias, 7] | 98.4 | 24.8
19 | AAUAAACAUGAGGAUCACCCAUGUCAGGAUAUGCAUCUAACCUAAUAACAUAAAUACAGCAGAAGGGACUAAUA [JR_Exc001_Sub602] | 25 | 26.8
20 | AGAAAGUGAGGAUAUUCGGAUAGGAAAACGAAAACCUAUCCGAAGAAGGCACAUGAGGAUCACCCAUGUAAAGA [Mat - Exaclusion 4 - Eli mod - D39] | 54 | 39.6

Row | Sequence | apparent KD of MS2 coat protein (MS2 coat protein [1]) [nM] | apparent KD of MS2 coat protein (MS2 coat protein [2]) [nM]
21 | AAAUAGCAAGGAUAUACAUGAGGAUCACCCAUGUAAGGAUGGUAAGUAUUAGAAGAAAGUAGAAGGUGCAAAUA [Ex 3 Tesla 5] | 55.3 | 33.6
22 | UAAAGGAUAGGAUAUACAUGAGGAUCACCCAUGUGAAUAAAUAAGAAAAUAAAAGAAAGUAGAAGGAUCAAGAA [LROPPY Exclusion 3 - v04_deltaG=3.9 break up As mixed] | 29.6 | 25.2
23 | AAGAAACAUGAGGAUCACCCAUGUCAGGAUAUUCAAAAGAAAAGAAAAGAAAGAAGAAGAAGAAGGGACAAAGG [Neferkare II] | 66.1 | 57.6
24 | CGAAUACAUGAGGAUCACCCAUGUUAGGAUAUGCGAAAACAAAACAAAACAAACAAAAGUAGAAGGAGCAACAA [EXC - 1] | 20 | 18.1
25 | AAAAAGUGAGGAUAUACGUUAAAAAAAAAAAAAAAAAAGCGGUAGAAGGCACAUGAGGAUCACCCAUGUAAAAA [Ex4 Malc#3] | 34.7 | 57.7
26 | AAAAAGGGAGGAUAUACAUGAGGAUCACCCAUGUAGCAGACGAAAAAGAGUCUGUAAUGUAGAAGGCCCAAAAA [65%, Moding Exclusion3-cac2, 4] | 32.2 | 16.2
27 | AGUCAUACAGGAUAUACAUGAGGAUCACCCAUGUAUAUCCAAAAAAAAAAAUCCUCAUGUAGAAGGGUAUGACA [EX3 205: Super Stable 5] | 18.7 | 17.1
28 | AACAGGUCAGGAUAUGUGGAAAAAAUAAAAAAAAUAAAAACACAGAAGGGACAUGAGGAUCACCCAUGUAAACA [May 23] | 60.4 | 47.2
29 | CCCAUGUCAGGAUAUCAGUAGUAAAAAAAAAAAAUUACUACUGAGAAGGGACAUGAGGAUCACCCAUGUCCAAA [EX4 316: Super Stable 16] | 38.7 | 61.7
30 | UUUAUGUGAGGAUAUGUACAGAAAAAAAAGGGUGUAACUGUACAGAAGGCACAUGAGGAUCACCCAUGUGAAUA [EX4 381: S S Pseudoknot 6] | 216 | 113
31 | GGUUGGCGAGGAUAUACAUGAGGAUCACCCAUGUGAGAGAAAAAAGUGAGACAGAAAAGUAGAAGGCGCUGACG [salish99-ex3-24] | 7.45 | 65.8
32 | AAAAAUUGAGGAUAUACGUACAUGUCAAAAGACGUGAAGGGACAUGAGGAUCACCCAUGUAGAAGGCGAAAGAA [JL Neck Breaker 13] | 16 | 37.1
33 | AAAAACUGAGGAUAUACGAAAAAAAAAAAAAAAAAAAAAAAACAUGAGGAUCACCCAUGUAGAAGGCAGAAAAA [exclusion 02 - A] | 57.5 | 41.4
34 | AAAAAAAGAGGAUAUACAUGAAAAAUAAAAAUGUAAAAAAAACAUGAGGAUCACCCAUGUAGAAGGCUUAAAAA [Ecx-I 62% 1] | 25.9 | 24.6
35 | UUAACACAUGAGGAUCACCCAUGUUAGGAUAUUGUGGUAGGAACAACUGGGAAACGCACAAGAAGGGACACACA [EX1 Malc#18 Mod 18 - Jieux - Exclusion 1] | 26.6 | 29.2
36 | AAAAAGUGAGGAUAUACAUGAGGAUCACCCAUGUGUAUAAAAAAUUACACAAAAGAAAGUAGAAGGCACUAAAG [Mat - Exclusion 3 - Mayanna mod - D112] | 30.8 | 17
37 | CUCAAGUUAGGAUAUCUAAGAAAAGAAGAGAAAGAAAAGAAAGAGAAGGAACAUGAGGAUCACCCAUGUAAGAA [EteRNA is fun!] | 25.7 | 18.4
38 | AGUAAACAUGAGGAUCACCCAUGUGAGGAUAUCGAAAAGAAAAGAAAAGAAAGAAGAAUGAGAAGGCACAAGAA [Huni] | 37 | 33.3
39 | AGUGAGUCAGGAUAUGACUGAAGAAUAAAAGAAAUAACAAGUCAGAAGGGACAUGAGGAUCACCCAUGUACACA [May 59] | 20.7 | 30.9
